Test results published in article PMC9418451.

Experiments:
SecYEG = SecYEG (UniProt P0AGA2); experiment: high-speed atomic force microscopy
SecYEG G297LBT = SecYEG G297LBT (UniProt P0AGA2); experiment: FRET or BRET

Row | occupancy of SecYEG molecules by SecA (SecYEG G297LBT) [%] | Substance | Kd (SecYEG) [nM] | tau off (time constant of the periods in which SecA was bound) (SecYEG) [s] | tau on (time constant of the unbound periods until SecA rebinds) (SecYEG) [s]
1 |  | SecA (from UniProt P10408 1-901) (natural protein) | 10 | 1.1 | 1.7
2 | 10 | SecA(N95) K797C labeled with Atto488 (from UniProt P10408 1-901) (natural protein) |  |  | 
